Data taken from publication PMC1188057, “Dynamic assembly, localization and proteolysis of the Bacillus subtilis SMC complex” (BMC Cell Biology, 2005).

B1: ScpB (Bacillus subtilis), His-tagged, purified (natural protein, UniProt P35155 1-197, looked up)
chain: MGLDIVNWKAIVEALLYAAGDEGLTKKQLLTVLEIEEPELNTIMADVADEYRGDTRGIELIEYADTYMLSTKKDFAPYLKKLIEVPSKGLSQASLEVLAIVSYKQPITRAEIEEIRGVKSERILHSLVAKALLCEVGRADGPGRAILYGTTPTFLEQFGLKTLDELPPLPENAEEDVLQEEADLFFENFNQTFEDIK
notes: ScpB, Bacillus subtilis; elutes at 65 kDa in gel filtration (dimer)
B2: SMC protein (Bacillus subtilis), His-tagged, purified (natural protein, UniProt P51834 1-1186, looked up)
chain: MFLKRLDVIGFKSFAERISVDFVKGVTAVVGPNGSGKSNITDAIRWVLGEQSARSLRGGKMEDIIFAGSDSRKRLNLAEVTLTLDNDDHFLPIDFHEVSVTRRVYRSGESEFLINNQPCRLKDIIDLFMDSGLGKEAFSIISQGKVEEILSSKAEDRRSIFEEAAGVLKYKTRKKKAENKLFETQDNLNRVEDILHELEGQVEPLKIQASIAKDYLEKKKELEHVEIALTAYDIEELHGKWSTLKEKVQMAKEEELAESSAISAKEAKIEDTRDKIQALDESVDELQQVLLVTSEELEKLEGRKEVLKERKKNAVQNQEQLEEAIVQFQQKETVLKEELSKQEAVFETLQAEVKQLRAQVKEKQQALSLHNENVEEKIEQLKSDYFELLNSQASIRNELQLLDDQMSQSAVTLQRLADNNEKHLQERHDISARKAACETEFARIEQEIHSQVGAYRDMQTKYEQKKRQYEKNESALYQAYQYVQQARSKKDMLETMQGDFSGFYQGVKEVLKAKERLGGIRGAVLELISTEQKYETAIEIALGASAQHVVTDDEQSARKAIQYLKQNSFGRATFLPLSVIRDRQLQSRDAETAARHSSFLGVASELVTFDPAYRSVIQNLLGTVLITEDLKGANELAKLLGHRYRIVTLEGDVVNPGGSMTGGAVKKKNNSLLGRSRELEDVTKRLAEMEEKTALLEQEVKTLKHSIQDMEKKLADLRETGEGLRLKQQDVKGQLYELQVAEKNINTHLELYDQEKSALSESDEERKVRKRKLEEELSAVSEKMKQLEEDIDRLTKQKQTQSSTKESLSNELTELKIAAAKKEQACKGEEDNLARLKKELTETELALKEAKEDLSFLTSEMSSSTSGEEKLEEAAKHKLNDKTKTIELIALRRDQRIKLQHGLDTYERELKEMKRLYKQKTTLLKDEEVKLGRMEVELDNLLQYLREEYSLSFEGAKEKYQLETDPEEARKRVKLIKLAIEELGTVNLGSIDEFERVNERYKFLSEQKEDLTEAKNTLFQVIEEMDEEMTKRFNDTFVQIRSHFDQVFRSLFGGGRAELRLTDPNDLLHSGVEIIAQPPGKKLQNLNLLSGGERALTAIALLFSILKVRPVPFCVLDEVEAALDEANVFRFAQYLKKYSSDTQFIVITHRKGTMEEADVLYGVTMQESGVSKVISVKLEETKEFVQ
notes: SMC, Bacillus subtilis; monomeric size 135 kDa as printed; also called wild-type SMC; wild type SMC

Legend:
[1] = biological target: the molecule itself; assay: SEC; analytical gel filtration, Superdex 200 10/300 GL; 50 mM HEPES, 300 mM NaCl, pH 8.0; proteins incubated 30 min; ScpA and ScpB alone or mixed (1:2.5, 1:0.83, 1:10), fractions on SDS-PAGE
[2] = biological target: the molecule itself; assay: SEC + other: sucrose gradient centrifugation; native weight of purified SMC from sedimentation coefficient 6.6 and Stokes radius 8.5; monomers to dimer

Protein | stoichiometry N [1] | stoichiometry N [2]
B1 | 2 | 
B2 |  | 2
